B1: TPR t1 (parent)
chain: GACCAAUCUGCCCUCAGAGCUCGAGAACAUCUUCGGAUGCAGAGGAGGCAGGCUUCGGUGGCGCGAUAGCGCCAACGUCCUCAACCUCCAAUGCAUCCCACCACAUGAUGAUGCCUGAAGAGCCUUGGUUUUUUG

Variants of: B1
Assay: polymerase ribozyme fitness, log enrichment relative to wild type (log ratio); higher = more active; in vitro selection for triplet polymerase activity
Outline: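 Mutant libraries were PCR-built and transcribed for each subunit of a heterodimeric triplet polymerase ribozyme and selected for one round in triplicate at −7 °C, frozen, before gel excision of extended constructs and streptavidin-bead capture. Input and output libraries were Illumina-sequenced, keeping genotypes with ≥10 input reads and ≥1 read per output. Fitness is a logarithmic ratio of genotype to wild-type enrichment, in base 2, using inverse-variance-weighted replicate averages.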

Variant	polymerase ribozyme fitness (log ratio)
GACCAAUCUGCCCUCAGAGCUCGAGAACAUCUUCGGAUGCAGAGGAGGCAGGCUUCGGUGGCGCGAUAGCGCCAACGUCCUCCACCUCCAAUGCAUCCCACCACAUGAUGAUGCCUGAAGAGCCUAGGUUUUUUG [A83C U126A]	-1.84
GACGAAUCCGCCCUCAGAGCUCGAGAACAUCUUCGGAUGCAGGGGAAGCAGGCUUCGGUGGCGCGAUAGCGCAAACGUCCUCAACCUCCAAUGCAUCCCACCACAUGAUGAUGCCUGAAGAGCCUUGGUUUUUUG [C4G U9C A43G G47A C73A]	-2.93
GACCAAUCUGCCCUCAGAGCUCGAGAACAUCUUCGGAUGCAGAGGAGGCAGGCUUCGGUGGCGCGAUAGCGCCAACGUCCUCAACCUCCAAUGCCUCCCACCACAUGAUGAUGCCUGAAGAGCCUUGGUUAUUUG [A95C U131A]	-0.642
GACCAAUCUGCCCUCAGAGCUCGAGAACAUCUUCGGAUGCAGAGGAGGCAGGCUUAGGUGGCGCGAUAGCGCCAACGUCCUCAACCUCCAAUGCAUCCCACCACAUGAAGAUGCCUGAAGAGCCUUGGUUUUUUG [C56A U109A]	-5.84
GACCAAUCUGCCCGCAGAGAUCGAGAACAUCUUCGGAUGCAGAGGAGGCAGGCUUCGGUGGCGCGAUAGCGCUAACGUCCUCAACCUCCAAUGCAUCCCACUACAUGAUGAUGCCUGAAGAGCCUUGGUUUUAUG [U14G C20A C73U C102U U133A]	-4.53
GACCAAUCGGCCCUCAGAGCUCGAGAACAUCUUCGGAUGCUGAGGAGGCAGGCUUCGGUGGCGCGAUAGCGCCAACGUCCUCAACCUCCAAUGCCUCCCACCACAUGAUGAUGCCUGAAGAGCCUUGGUUAUUUG [U9G A41U A95C U131A]	-1.93
GACCAAUCUGCCCUCAGAGCUCGAGAACAUCUUCGGAUGCAGAGGAGGCAGGCUUCGGUGGCGCGAUAGCGCCAACGUCCUCAACCUCCAAUGUAUCCCACCACAUGAUGAUGCCUGAAGAGACUUGGUUUUUUG [C94U C123A]	0.36
GACCAAUCUGCCCUCAGAGCUAGAGAACAUCUUCGGAUGCAGACGAGGCAGGCUUCGGUGGCGCGAUAGCGCCAACGUCCUCAACCUCCAAUGCAUCCCACCACAUGAUGAAGCCUGAAGAGCCUUGGUUUUUUG [C22A G44C U112A]	-3.24
GACCAAUCUGCCCUCAGAGCUCGAGAACAUCUUCGGAUGCAGAGGAGGCAGGCUUCGGUGGCGCGAUAGCGCCAACGUACUCAACCUCCAAUGCAUCCCACCACAUGAUGAUACCUGAAGAGCCUUGGUUUUUUG [C79A G113A]	-2.27
GACCAAUCUGCCCUCAGGGCUCGAGAACAUCUUCGGAUGCAGAGGAGGCAGGCUUCGGUUGCGCGAUAGCGCCAACGUCCUCAACCUCCAAUGCAGCCCACCACAUGUUGAUGCCUGAAGAGCCUUGGUUUUUUG [A18G G60U U96G A108U]	-7.14
GCCCAAUCUGCCCUCAGAGCUCGAGAACAUCUUCGGAUGCAGAGGAGGCAGGCUUCGGUGGCGCGAUAGCGCCAACGUCCUCAACCUCCAAUGCAUCCCAACACAUGAUGAUGCCUGAAGAGCCUUGGUUUUUUG [A2C C101A]	-2.7
GACCAAUCUGCCCUGAGAGCUCGAGAACAUCUUCGGAUGCAGAGGAGGCAGGCUUCGGUGGCGCGAUAGGGCCAACGUCCUCAACCUCCAAUGCAUCCCACCACAUGAUGAUGCCUGAAGAGCCUUGGUUUCUUG [C15G C70G U132C]	-6.73
GACCAAUCUGCCCUCAGAGCUCGAGAACAUCUUCGGAUGCAUAGGAGGCAGGCUUCGGUGGCGCGAUAGCGCCAACGUCCUCAACCUCCAAUGGACCCCACCACAUGAUGAUGCCUGAAGAGCCUUGGUUUUUUG [G42U C94G U96C]	-4.23
GACCAAUCUGCCCUCAGAGCUCGAGAACAUCUUCGGAUGCAGAGGAAGCAGGCUUCGCUGGCGCGAUAGCUCCAACGUUCUCAACCUCCAAUGCAUCCCACCACAUGAUGAUGCCUGAAGAGCCUUGGUCUUUUG [G47A G58C G71U C79U U130C]	-0.309
GAUCAAUCUGCCCUCAGAGCUCGAGAACAUCUUCGGAUGCAGAGGAGGCAGGCUUCGGUGGCGCGAUAGUGCCAACGGCCUCAACCACCAAUGCAUCCCACCACAUGAUGAUGCCUGAAGAGCCUUGGUUUUUUG [C3U C70U U78G U87A]	-1.1
GACCAAGCUGCCCUCAGAGCUCGAGAACAUCUUCGGAUGCAGAGGAGGCAGGCUUCGGUGGCGCGAUAGCGCCAACGUCCUCAACCUCCAAUGCAUCCCAGCACAUGAUGAUGCCUGAAGCGCCUUGGUUUUUUG [U7G C101G A121C]	-0.603
GACCAAUCUGCCCUCAGAGCUCGAGAACAUCUUCGGAUGCAGAGGAGGCAGGCUUCGGUGGCGUGAUAGCGCCAACGUCCUCAACCUCCAAUGCAACCCACCACAUGAUGAUGCCUGAAGAGCCUUGGUUUUUUG [C64U U96A]	-1.23
GACCAAUCUGCCCUCAGAGCUCGAGAACAUCUUCGGAUGCAGAGGAGGCAGGCUUCGGUGGCGCGAUAGCGCUAACGUCCUCAACUUCCAAUGCACCCCACCACAUGAUGAUGCCUGAGGAGCCUUGGUUCUUUG [C73U C86U U96C A119G U131C]	0.735
GACCAAUCUGCCCUCAGAGCUCGAGAACAUCUUCGGAUGCAGUGGAGGCAGGCUUCGGUGGCGCGAUAGCGCCAACGUCCACAAGCUCCAAUGCAUCCCACCACAUGAUGAUGCCUGAAGAGCUUUGGUUUUUUG [A43U U81A C85G C124U]	-4.75
GAACACUCUGCCCUCAGAGCUCGAGAACAUCUUCGGAUGCAGAGGAGGCAGGCUUCGGAGGAGCGAUAGCGCCAACGGCCUCAACCUCCAAUGCAUUCCACCACAUGAUGAUGCCUCAAGAGCCUUGGUUUUUUC [C3A A6C U59A C62A U78G C97U G117C G135C]	-6.34
GACCAAUCUGCCCGCAGAGCUCGAGAACAUCUUCGGAUGCAGAGGAGGCAGGCUUCGGUGGCGCGAUAGCUCCAACGUCCUCAACCUCCAAUUCAUCCCACCACUUGAUGAUGCCUGAAGAGCCUUGGUUUUUUG [U14G G71U G93U A105U]	-6.14

From the RNAGym collection of RNA variant scans (doi:10.1073/pnas.2313332121)
